{
  "source": "paper PMC10636138",
  "target": "SARS-CoV-2 B.1 (Wuhan) RBD",
  "experiment": "BLI",
  "data": [
    {"substance": "CR3022", "values": [
      {"measurement": "Kd", "value": 0.0221, "unit": "µM"}
    ]}
  ]
}
